Data from US11976099B2, “Compositions and methods for treatment of bone associated diseases” (THE NATIONAL INSTITUTE FOR BIOTECHNOLOGY IN THE NEGEV LTD., priority 2016, dated 2024).
“And” between values parts separate entries of the source, which are not always exact repeats. Identical values can stand only once.

How the values were obtained:
αvβ5 integrin = αvβ5 integrin (Homo sapiens, UniProt P06756+P18084, DEL720-799); assay: SPR integrin specificity, immobilized αvβ5; format: binding; settings: variants at 1 μM
Experimental: (§1) Determination of binding of the soluble purified proteins (M-CSFM and M-CSFRGD variants) to c-FMS and αvβ3 integrin was performed on a ProteOn XPR36 (Bio-Rad, USA). […] Unbound esters were deactivated with 1 M ethanolamine HCl at pH 8.5, and the temperature was set at 25° C. Then, the chip was rotated, and the human c-FMS soluble proteins (Sino Biological, China) were allowed to flow over the chip at 6 different concentrations (0, 12.5, 25, 50, 100 and 200 nM) at a flow rate of 50 μl/min for 490 s, followed by dissociation for 600 s in PBS+0.005% Tween (PBST). For determining αvβ3 integrin binding, the chip was regenerated using 50 mM NaOH at a flow rate of 100 μl/min and analyzed again for c-FMS binding to make sure that the chip had been regenerated. After making sure the chip is regenerated, and different concentrations of […] proteins (0, 12.5, 25, 50, 100 and 200 nM) were allowed to flow over the chip. The interactions obtained were normalized to the initial protein binding RUs to the chip surface. Then, for each concentration, the KD was obtained from the equilibrium binding phase of the sensorgram. To determine the αvβ3 integrin specificity for each M-CSFRGD variant, a new chip was loaded with different RGD binding integrins, as follows: 8.5 μg of α3β1, 8.5 μg of α4β7, 6 μg of α5β1, 8.5 μg of αvβ5, and 8.5 μg of αvβ3 integrin and 3 μg of BSA as a negative control. […]

[1] = system: CTX-I (carboxy-terminal collagen crosslinks); assay: CTX-I serum ELISA in ovariectomized mice (bone resorption); format: in vivo, C57 Rcc mice; parameters: CTX-I serum-concentration: unit not given here; settings: for CTX-I serum-concentration: 4 days, individual animals, listed as M-CSF 5.6
Experimental: In order to assess the effect of M-CSF variant on bone resorption, 10 weeks old C57 Rcc mice were ovariectomized resulting in a decrease in estrogen secretion similar to what occurs in osteoporosis. Two weeks post-surgery the mice were treated with M-CSF5.6 variant in three concentrations-0.1 mg/kg, 0.5 mg/kg and 15 mg/kg, in order to test the effect on bone resorption and to find the optimal dosage. For a period of 4 days, 0.1 and 0.5 mg/kg M-CSF5.6 treated mice received subcutaneous injections twice a day, while 15 mg/kg M-CSF5.6 treated mice received a daily subcutaneous injection. Mice were sacrificed 18-24 hours after the final injection. The amounts of type I collagen fragments in the blood were measured using CTX-I (carboxy-terminal collagen crosslinks) ELISA.
Animals were randomly divided into 2 control groups (SHAM, PBS) and 4 treatment groups (0.1, 0.5 and 15 mg/kg M-CSF5.6 and 0.1 mg/kg Alendronate as positive control). Except for the SHAM group, all animals were ovariectomized. *, ^, + represent a Haemolytic-serum sample, an unsuccessful ovariectomy procedure (as determined post mortem) and an outlier, respectively. CTX-I serum-concentration values of mice with unsuccessful ovariectomy were excluded from the analysis.

mature osteoclasts = assay: Actin ring formation in mature osteoclasts; format: cell-based, mouse; settings: inhibitors 5 μM added to mature osteoclasts for 24 h; F-actin staining
Experimental: FIG. 23 are example pictures showing Actin ring formation in mature osteoclasts incubated with M-CSFRGD variants. Murine BMMs were allowed to differentiate into osteoclasts in the presence of M-CSF and RANKL for 72 h. Then, the cells were incubated for additional 24 h without (positive control) or with inhibitors (5 μM) followed by fixation and staining for F-actin and nuclei. Cells were able to form a solid actin ring (white arrowheads), scattered actin ring (white arrows) or amorphous actin distribution (barbed arrowheads). Pictures are representatives of 35 images acquired from five different wells per sample.
For a mature osteoclast to resorb bone properly, it must form unique structure termed “sealing zone”; this structure consists of an actin ring made from a dense actin mesh connected by adhesion complexes called podosomes. The formation of the actin ring involves several stages: at the beginning, podosomes are formed throughout the cell in a scattered manner, then groups of podosomes form small actin structures named belts and upon osteoclast maturation, the belts are moving to the cell periphery, cluster, and form the actin ring. Podosomes contain high levels of αvβ3 integrin which is essential for the formation of a proper actin ring with condensed podosome network. […]

c-kit receptor = c-kit receptor (Homo sapiens, UniProt P10721); assay: YSD binding specificity test against c-kit receptor; settings: even at high concentrations of 200 nM; data not shown
Experimental: Next, a binding specificity of the M-CSFM to c-FMS was evaluated. For this purpose, the ability of M-CSFM to bind a c-kit receptor, which is a c-FMS structural homolog, was utilized.

αvβ3 integrin = αvβ3 integrin (Homo sapiens, UniProt P05106+P06756); assay: SPR binding of purified proteins to αvβ3 integrin; settings: proteins immobilized; integrin 0-200 nM; equilibrium
Experimental: as §1

Chain of c-kit receptor (P10721 26-976): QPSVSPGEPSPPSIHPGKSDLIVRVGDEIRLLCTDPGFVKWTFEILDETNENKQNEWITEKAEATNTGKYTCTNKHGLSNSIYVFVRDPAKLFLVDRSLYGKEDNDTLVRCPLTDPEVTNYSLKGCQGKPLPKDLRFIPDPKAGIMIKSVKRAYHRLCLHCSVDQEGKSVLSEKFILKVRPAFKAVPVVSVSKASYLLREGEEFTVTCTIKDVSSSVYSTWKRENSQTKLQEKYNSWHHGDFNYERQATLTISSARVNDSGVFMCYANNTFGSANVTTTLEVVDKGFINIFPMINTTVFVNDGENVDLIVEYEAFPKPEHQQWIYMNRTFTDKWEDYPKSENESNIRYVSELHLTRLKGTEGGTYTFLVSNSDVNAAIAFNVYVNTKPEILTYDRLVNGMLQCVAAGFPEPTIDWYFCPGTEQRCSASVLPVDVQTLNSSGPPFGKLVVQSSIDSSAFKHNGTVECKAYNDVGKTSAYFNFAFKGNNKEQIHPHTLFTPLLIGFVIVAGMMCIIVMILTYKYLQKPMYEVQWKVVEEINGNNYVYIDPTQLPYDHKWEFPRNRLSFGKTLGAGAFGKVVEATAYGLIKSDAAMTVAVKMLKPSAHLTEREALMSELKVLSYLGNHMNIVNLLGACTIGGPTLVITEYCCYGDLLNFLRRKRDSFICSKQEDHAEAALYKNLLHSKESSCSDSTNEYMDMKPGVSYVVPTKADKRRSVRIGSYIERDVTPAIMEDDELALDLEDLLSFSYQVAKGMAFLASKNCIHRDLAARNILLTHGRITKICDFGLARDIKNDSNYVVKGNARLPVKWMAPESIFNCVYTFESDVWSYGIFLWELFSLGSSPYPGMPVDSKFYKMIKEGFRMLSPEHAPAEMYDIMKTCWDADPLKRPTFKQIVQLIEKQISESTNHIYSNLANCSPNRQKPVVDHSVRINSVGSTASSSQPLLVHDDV
Chain of αvβ3 integrin (P06756 31-992 limits assumed): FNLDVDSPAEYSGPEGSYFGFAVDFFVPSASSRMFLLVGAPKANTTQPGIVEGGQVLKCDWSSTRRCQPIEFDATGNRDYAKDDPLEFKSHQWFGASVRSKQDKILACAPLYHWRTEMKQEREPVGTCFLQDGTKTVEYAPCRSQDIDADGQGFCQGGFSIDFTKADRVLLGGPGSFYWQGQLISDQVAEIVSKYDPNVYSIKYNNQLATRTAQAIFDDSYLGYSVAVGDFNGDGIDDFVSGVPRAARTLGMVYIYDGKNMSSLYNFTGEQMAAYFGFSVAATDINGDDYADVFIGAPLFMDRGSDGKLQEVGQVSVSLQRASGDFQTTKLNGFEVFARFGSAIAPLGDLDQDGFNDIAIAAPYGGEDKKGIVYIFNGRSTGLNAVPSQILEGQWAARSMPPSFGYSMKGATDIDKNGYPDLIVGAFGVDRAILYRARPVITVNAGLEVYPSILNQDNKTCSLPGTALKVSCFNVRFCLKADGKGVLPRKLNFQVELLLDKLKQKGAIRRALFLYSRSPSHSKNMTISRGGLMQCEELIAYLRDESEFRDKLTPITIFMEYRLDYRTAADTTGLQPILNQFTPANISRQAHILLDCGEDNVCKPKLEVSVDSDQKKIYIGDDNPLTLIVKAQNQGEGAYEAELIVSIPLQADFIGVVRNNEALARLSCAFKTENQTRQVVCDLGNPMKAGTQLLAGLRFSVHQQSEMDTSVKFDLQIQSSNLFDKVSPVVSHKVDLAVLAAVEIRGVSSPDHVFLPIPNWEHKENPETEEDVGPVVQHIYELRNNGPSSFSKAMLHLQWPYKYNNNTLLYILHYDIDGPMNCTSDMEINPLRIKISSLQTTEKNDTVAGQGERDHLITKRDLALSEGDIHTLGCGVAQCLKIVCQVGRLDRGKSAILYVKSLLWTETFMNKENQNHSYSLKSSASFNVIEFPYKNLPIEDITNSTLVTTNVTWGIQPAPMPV
Chain of αvβ3 integrin (P05106 27-718 limits assumed): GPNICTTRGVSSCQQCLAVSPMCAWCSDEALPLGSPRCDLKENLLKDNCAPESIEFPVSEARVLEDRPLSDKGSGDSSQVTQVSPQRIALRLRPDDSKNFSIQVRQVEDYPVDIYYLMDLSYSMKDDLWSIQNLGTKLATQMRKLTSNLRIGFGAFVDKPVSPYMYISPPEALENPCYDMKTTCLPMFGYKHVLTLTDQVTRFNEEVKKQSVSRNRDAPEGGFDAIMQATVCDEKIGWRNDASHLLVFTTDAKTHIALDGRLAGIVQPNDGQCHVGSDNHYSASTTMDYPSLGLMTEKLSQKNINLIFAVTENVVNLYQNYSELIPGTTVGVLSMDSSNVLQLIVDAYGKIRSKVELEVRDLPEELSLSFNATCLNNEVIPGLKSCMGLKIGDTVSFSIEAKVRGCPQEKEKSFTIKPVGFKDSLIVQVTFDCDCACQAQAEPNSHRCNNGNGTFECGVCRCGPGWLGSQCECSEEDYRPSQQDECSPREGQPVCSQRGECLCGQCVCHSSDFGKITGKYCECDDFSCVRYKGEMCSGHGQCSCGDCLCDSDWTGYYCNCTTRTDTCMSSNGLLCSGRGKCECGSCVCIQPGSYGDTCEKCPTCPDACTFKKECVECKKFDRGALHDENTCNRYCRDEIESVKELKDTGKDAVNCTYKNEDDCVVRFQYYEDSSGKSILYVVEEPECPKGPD
Chain of αvβ5 integrin (P06756 31-992 limits assumed, stated change not applied): as the sequence (P06756 31-992 limits assumed) above
Chain of αvβ5 integrin (P18084 24-719 limits assumed, stated change not applied): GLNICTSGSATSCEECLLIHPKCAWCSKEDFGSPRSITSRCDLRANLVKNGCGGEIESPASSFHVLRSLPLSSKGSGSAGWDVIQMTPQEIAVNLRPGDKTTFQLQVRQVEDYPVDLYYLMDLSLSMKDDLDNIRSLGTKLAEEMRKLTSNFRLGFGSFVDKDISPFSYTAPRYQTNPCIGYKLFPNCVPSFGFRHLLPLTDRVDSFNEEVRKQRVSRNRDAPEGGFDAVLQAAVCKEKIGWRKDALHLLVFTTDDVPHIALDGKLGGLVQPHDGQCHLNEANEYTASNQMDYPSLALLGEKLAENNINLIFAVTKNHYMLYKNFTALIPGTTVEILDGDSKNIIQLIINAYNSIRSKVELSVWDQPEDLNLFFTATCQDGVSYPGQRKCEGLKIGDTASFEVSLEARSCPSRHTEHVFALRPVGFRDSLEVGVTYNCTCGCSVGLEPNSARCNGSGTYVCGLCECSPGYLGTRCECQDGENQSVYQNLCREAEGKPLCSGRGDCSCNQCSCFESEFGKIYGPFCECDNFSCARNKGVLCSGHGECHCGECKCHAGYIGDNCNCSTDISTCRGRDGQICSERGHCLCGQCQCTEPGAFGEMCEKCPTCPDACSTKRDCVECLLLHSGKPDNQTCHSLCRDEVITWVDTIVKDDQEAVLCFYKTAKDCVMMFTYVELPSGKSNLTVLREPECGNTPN

binding to c-kit receptor (c-kit receptor)	KD to αvβ3 integrin (αvβ3 integrin)	Molecule	rank order of αvβ5 integrin binding (αvβ5 integrin)	CTX-I serum-concentration ([1]; 0.1 mg/kg s.c. twice a day, * haemolytic)	CTX-I serum-concentration ([1]; 0.5 mg/kg s.c. twice a day, * haemolytic, ^ unsuccessful ovariectomy, + outlier)	decrease in CTX-I levels compared to the PBS treated animals ([1]; 15 mg/kg)	CTX-I serum-concentration ([1]; 15 mg/kg s.c. daily, ^ unsuccessful ovariectomy, + outlier)	effect on CTX-I levels at lower doses ([1]; 0.1 and 0.5 mg/kg, hemolytic samples included)	actin ring formation (mature osteoclasts)
–	–	5.6: bispecific M-CSFRGD variant from sort five; M-CSFM loop replaced by XXXRGDXXX motif; binds c-FMS and αvβ3 integrin (protein, left off: small tags and cut ends) EEVSEYCSHMIGSGHLQSLQRLIDTYPRGDMCSITFEFVDQEQLKDPVCYLKKAFLLVQDIMEDTMRFRDNTPNAIAIVQLQELSLRLKSCFTKDYEEHDKACVRTFYETPLQLLEKVKNVFNETKNLLDKDWNIFSKNCNNSFAECSSQGHERQSEGS	4.24 is the best αvβ5 integrin followed by 4.22 and 5.6	58.19 and 44.06 and 130.4* and 195.2* and 53.32 and 46.69	53.33 and 209.7+ and 47.65*^ and 64.67 and 70.37* and 83.09*	~2 fold	33.94 and 33.49 and 214.7^+ and 46.82 and 30.85 and 40.68	ineffective	showed the same phenotype as cRGD and M-CSFαvβ3
did not bind	did not bind	M-CSFM: 158 amino acid M-CSF with cysteine at position 31 replaced by serine (SEQ ID NO: 2) (protein) EEVSEYCSHMIGSGHLQSLQRLIDSQMETSSQITFEFVDQEQLKDPVCYLKKAFLLVQDIMEDTMRFRDNTPNAIAIVQLQELSLRLKSCFTKDYEEHDKACVRTFYETPLQLLEKVKNVFNETKNLLDKDWNIFSKNCNNSFAECSSQGHERQSEGS	–	–	–	–	–	–	–
